Measurements: patent publication US9422583B2, “Stereospecific carbonyl reductases” (RUTGERS, THE STATE UNIVERSITY OF NEW JERSEY, priority 2009, dated 2016)

Assays:
[1] = tested on: O=C(CO)c1ccccc1; assay: reduction of 2-hydroxyacetophenone with NADPH, apparent kinetic parameters by Lineweaver-Burk plots; assay type: biochemical, Candida parapsilosis
Method: (§1) Since environmental pH value can have an influence on the stereochemistry of enzymatic reactions (Secundo and Phillips, Enzyme Microb. Technol., 19, 487-492 (1996)), the effect of the reaction pH on the activities of SCRs catalyzing 2-hydroxyacetophenone reduction was also investigated. […] Subsequently, the enzymes were evaluated under their individual optimal pH, and apparent kinetic parameters were further measured by double reciprocal Lineweaver-Burk plots at various 2-hydroxyacetophenone concentrations with fixed NADPH concentrations. […] The values are the average of three independent experiments.
(§2) Enzyme Assays. Carbonyl reductase activity was measured by a continuous spectrophotometric assay using 2-hydroxyacetophenone as a substrate. One unit of enzyme activity was defined as the amount of enzyme catalyzing the oxidation of 1 μmol NAD(P)H per min under the assay conditions. The standard assay mixture for the enzyme activity comprised of 0.1 M potassium phosphate buffer (pH 6.5), 0.3 mM NAD(P)H, 0.7 mM 2-hydroxyacetophenone and appropriate enzyme in a total volume of 100 μl. The decrease in the amount of the coenzyme was measured spectrophotometrically at 340 nm (extinction coefficient [ε]=6.22 mM^−1 cm^−1). Protein concentration was determined using Bradford reagents (Bio-Rad) with bovine serum albumin as a standard. The pH dependence of enzyme activity was determined over a pH range of 4.0 to 8.5 using the following buffers: 0.1 M acetate (pH 4.0 to 6.0), 0.1 M sodium phosphate (pH 6.0 to 8.0) and 0.1 M Tris-HCl (pH 8.0 to 8.5).

[2] = Carbonyl reductase activity and kinetic parameters, continuous spectrophotometric assay (NAD(P)H decrease at 340 nm); assay type: biochemical; conditions: reduction of 2-hydroxyacetophenone
Method: Catalytic Properties of Recombinant SCRs. The enzymatic activities of SCR1, SCR2, and SCR3 were investigated for reduction of 2-hydroxyacetophenone.
as §1, §2

[3] = Substrate specificity of SCRs with NADPH as cofactor; assay type: biochemical
Excerpt: The substrate specificity of SCRs was investigated under the same conditions as described above. Various carbonyl compounds including aryl ketones, aliphatic ketones, α- and β-ketone esters were used as the substrates with the cofactor of NADPH.

[4] = other: pH 4.5 (optimum pH), NADPH as cofactor
[5] = other: pH 5.0 (optimum pH), NADPH as cofactor at fixed concentration, average of three independent experiments
[6] = other: pH 6.0 (optimum pH), NADPH as cofactor at fixed concentration, average of three independent experiments
[7] = other: pH 5.5 (optimum pH), NADPH as cofactor at fixed concentration, average of three independent experiments
[8] = NADPH as cofactor, at optimum pH of each enzyme
[9] = compared with the other enzyme (SCR1 vs SCR3)

In the case of “Candida parapsilosis CPADH, SEQ ID NO:1 (GenBank DQ675534) (Lodderomyces parapsilosis CDC317)”, the Km [1, 4] is reported as 5.83 mM and the Vmax [1, 4] is reported as 18.3 µmol/min/mg.

With “Candida parapsilosis stereospecific carbonyl reductase SCR1, SEQ ID NO:4 (GenBank FJ939565), recombinant with C-terminal His6 tag (Lodderomyces parapsilosis CDC317)” the Km [1, 5] was 9.83 mM and the Vmax [1, 5] was 42 µmol/min/mg.

Work on “Candida parapsilosis stereospecific carbonyl reductase SCR3, SEQ ID NO:2 (GenBank FJ939564), recombinant with C-terminal His6 tag (Lodderomyces parapsilosis CDC317)” yielded a Km [1, 6] of 4.68 mM and a Vmax [1, 6] of 32.3 µmol/min/mg.

In the case of “Candida parapsilosis stereospecific carbonyl reductase SCR2, SEQ ID NO:3 (GenBank FJ939563), recombinant with C-terminal His6 tag (Lodderomyces parapsilosis CDC317)”, the Km [1, 7] is reported as 4.81 mM and the Vmax [1, 7] is reported as 8.83 µmol/min/mg.

B1: CPADH: C. parapsilosis enzyme encoded by cpadh gene, GenBank DQ675534, comparison enzyme in Table 1 (protein, listed as Candida parapsilosis)
chain: MGEIESYCNKELGPLPTKAPTLSKNVLDLFSLKGKVASVTGSSGGIGWAVAEAYAQAGADVAIWYNSHPADEKAEHLQKTYGVHSKAYKCNISDPKSVEETISQQEKDFGTIDVFVANAGVTWTQGPEIDVDNYDSWNKIISVDLNGVYYCSHNIGKIFKKNGKGSLIITSSISGKIVNIPQLQAPYNTAKAACTHLAKSLAIEWAPFARVNTISPGYIDTDITDFASKDMKAKWWQLTPLGREGLTQELVGGYLYLASNASTFTTGSDVVIDGGYTCP
For B1, the “pH (optimum pH for each enzyme)” value ([2]; NADPH as cofactor) was 4.5 and the Specific activity [2, 8] was 2.70 μmol/min mg protein.

B2: SCR1: stereospecific carbonyl reductase from C. parapsilosis, GenBank FJ939565, recombinant with C-terminal His6 tag (protein, listed as Candida parapsilosis)
chain: MSKDETISYCNDQLGPLPTTAPKVSDNVTDLFSFKGKVVSVTGSSGGIGWAVAEGFAQAGADVAIWYHSHNADEKAKYLQEKYGVKSIAYGCNIGVAEEVQKTVDQIESDFGKIDVFVANAGIPWTDGPEIDVQDLSKWTKIIDTDLNSVYYCAHAIGPIFRKQGKGSLVITASMSATIVNVPQLQAAYNVAKAGVKHLSKSLAVEWAPFARVNSVSPGYISTNLTTFANPDLQKKWVQLTPLGREGHPKELVGAYLYLASDAATFTTGCDLAVDGGYTVP
modifications: C-terminal His6 tag
In the case of B2, the “pH (optimum pH for each enzyme)” value ([2]; NADPH as cofactor) is reported as 5.0, the Specific activity [2, 8] is reported as 5.16 μmol/min mg protein and the “activity for reduction of ethyl 4-chloro-3-oxobutyrate” value ([3]; among the tested β-ketoesters) is reported as “highest activity”. For the same molecule, the “activity to m-Cl-2-hydroxyacetophenone” value [3, 9] was “higher activity”.

B3: SCR3: stereospecific carbonyl reductase from C. parapsilosis, GenBank FJ939564, recombinant with C-terminal His6 tag (protein, listed as Candida parapsilosis)
chain: MGEIESYCNKELGPLPTKAPTLAKNVLDLFSLKGKVASVTGSSGGIGWAVAEAYAQAGADVAIWYNSHPADEKAEHLQKTYGVRSKAYKCNISDPKSVEETISQQEKDFGTIDVFVANAGIPWADGPVIDLENYDAWNKLINTDINGVFYCAHSIGKIFKKNGKGSLIITASLAGSVVTIPQQQTPYNTAKAACLHLAKSLAVEWAPFARVNTVSPGYFETEINGFADEDMREKWYQLTPLGRMGITEELVGGYLYFASNASTFTTGSDLIIDGGFTCP
modifications: C-terminal His6 tag
In the case of B3, the “pH (optimum pH for each enzyme)” value ([2]; NADPH as cofactor) is reported as 6.0, the Specific activity [2, 8] is reported as 4.23 μmol/min mg protein and the “specificity to p-Cl-2-hydroxyacetophenone” value [3, 9] is reported as “more specific”.

B4: SCR2: stereospecific carbonyl reductase from C. parapsilosis, GenBank FJ939563, recombinant with C-terminal His6 tag (protein, listed as Candida parapsilosis)
chain: MGEIESYCNKELGPLPTKAPTLSKNVLDLFSLKGKVASVTGSSGGIGWAVAEAYAQAGADVAIWYNSHPADEKAEHLQKTYGVRSKAYKCNISDPKSVEETISQQEKDFGTIDVFVANAGVPWTEGPEINVDNYDSWNKIINLDLNGVYYCAHTVGKIFKKNGKGSLVITSSMSGTIVNVPQLQAAYNAAKAACTHLTKSLAVEWAPFARVNCVSPGYIATEISDFVEKDMKAKWWQLTPLGREGLAQELVGAYLYLASNASTYTTGANLAVDGGYTCP
modifications: C-terminal His6 tag
With B4 the “pH (optimum pH for each enzyme)” value ([2]; NADPH as cofactor) was 5.5, the Specific activity [2, 8] was 1.55 μmol/min mg protein and the Specific activity ([2]; under the assay conditions) was 1.55 µmol/min/mg protein.
